In patent US10159726B2, “Peptides, combination of peptides and scaffolds for use in immunotherapeutic treatment of various cancers” (Immatics Biotechnologies GmbH, priority 2015, dated 2018):

Molecular target: HLA-A*02 (Homo sapiens, UniProt P04439, D140Y/D185E/D98H/E176V/E277Q/G131W/G231S/I119V/I121R/I166T/I218V/N151K/N90K/P208A/P217A/Q86G/Q94H/R138H/R169H)
Test: MHC binding assay, UV-ligand exchange with beta2m ELISA, HLA-A*02
Conditions: peptide exchange yield
Excerpt: Candidate peptides for T cell based therapies according to the present invention were further tested for their MHC binding capacity (affinity). The individual peptide-MHC complexes were produced by UV-ligand exchange, where a UV-sensitive peptide is cleaved upon UV-irradiation, and exchanged with the peptide of interest as analyzed. Only peptide candidates that can effectively bind and stabilize the peptide-receptive MHC molecules prevent dissociation of the MHC complexes. To determine the yield of the exchange reaction, an ELISA was performed based on the detection of the light chain (β2m) of stabilized MHC complexes. The assay was performed as generally described in Rodenko et al. (Rodenko et al., 2006).
96 well MAXISorp plates (NUNC) were coated over night with 2 ug/ml streptavidin in PBS at room temperature, washed 4× and blocked for 1 h at 37° C. in 2% BSA containing blocking buffer. […] Peptide-MHC monomers of the UV-exchange reaction were diluted 100 fold in blocking buffer. Samples were incubated for 1 h at 37° C., washed four times, incubated with 2 ug/ml HRP conjugated anti-β2m for 1 h at 37° C., washed again and detected with TMB solution that is stopped with […]. Absorption was measured at 450 nm. Candidate peptides that show a high exchange yield (preferably higher than 50%, most preferred higher than 75%) are generally preferred for a generation and production of antibodies or fragments thereof, and/or T cell receptors or fragments thereof, as they show sufficient avidity to the MHC molecules and prevent dissociation of the MHC complexes.

Substance | MHC class I binding score, Peptide exchange
325 (RLLPKVQEV; listed as Homo sapiens) [compound 325] | ++ (20%-49% = ++)
331 (AIWKELISL; listed as Homo sapiens) [compound 331] | +++ (50%-75% = +++)
334 (GRADALRVL; listed as Homo sapiens) [compound 334] | +++ (50%-75% = +++)
327 (SIGDIFLKY; listed as Homo sapiens) [compound 327] | +++ (50%-75% = +++)
55 (IASAIVNEL; listed as Homo sapiens) [compound 55] | ++ (20%-49% = ++)
321 (SLWFKPEEL; listed as Homo sapiens) [compound 321] | +++ (50%-75% = +++)
54 (FINPKGNWLL; listed as Homo sapiens) [compound 54] | +++ (50%-75% = +++)
36 (KLYGIEIEV; listed as Homo sapiens) [compound 36] | ++++ (>=75% = ++++)
71 (GLITVDIAL; listed as Homo sapiens) [compound 71] | +++ (50%-75% = +++)
31 (ALSDETKNNWEV; listed as Homo sapiens) [compound 31] | ++++ (>=75% = ++++)
91 (SSLEPQIQPV; listed as Homo sapiens) [compound 91] | + (<20% = +)
32 (ILADEAFFSV; listed as Homo sapiens) [compound 32] | +++ (50%-75% = +++)
78 (LLWGHPRVA; listed as Homo sapiens) [compound 78] | +++ (50%-75% = +++)
93 (SLLTQPIFL; listed as Homo sapiens) [compound 93] | +++ (50%-75% = +++)
38 (KMQEDLVTL; listed as Homo sapiens) [compound 38] | +++ (50%-75% = +++)
10 (KTLDVFNIIL; listed as Homo sapiens) [compound 10] | ++ (20%-49% = ++)
339 (VLGPGPPPL; listed as Homo sapiens) [compound 339] | ++ (20%-49% = ++)
53 (SLLSHVIVA; listed as Homo sapiens) [compound 53] | +++ (50%-75% = +++)
8 (KLGPFLLNA; listed as Homo sapiens) [compound 8] | +++ (50%-75% = +++)
336 (GLMDGSPHFL; listed as Homo sapiens) [compound 336] | ++ (20%-49% = ++)
28 (TLYSMDLMKV; listed as Homo sapiens) [compound 28] | +++ (50%-75% = +++)
6 (FLDPAQRDL; listed as Homo sapiens) [compound 6] | +++ (50%-75% = +++)
69 (GIYDGILHSI; listed as Homo sapiens) [compound 69] | +++ (50%-75% = +++)
61 (HLPDFVKQL; listed as Homo sapiens) [compound 61] | ++ (20%-49% = ++)
1 (PLWGKVFYL; listed as Homo sapiens) [compound 1] | ++ (20%-49% = ++)
46 (SLAKHGIVAL; listed as Homo sapiens) [compound 46] | +++ (50%-75% = +++)
29 (TLCNKTFTA; listed as Homo sapiens) [compound 29] | +++ (50%-75% = +++)
20 (ALDGHLYAI; listed as Homo sapiens) [compound 20] | +++ (50%-75% = +++)
25 (IQADDFRTL; listed as Homo sapiens) [compound 25] | ++ (20%-49% = ++)
35 (YVLPKLYVKL; listed as Homo sapiens) [compound 35] | ++ (20%-49% = ++)
